From the supplement of paper PMC6379048

Assays:
Assay in all cases: EC50 of free RNA motif oligo competing protein binding to immobilised probe
RPS5 = RPS5 (UniProt P46782)
Procedure, shortened: (§1)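 HEK293-FT lysate (2.5 mg protein/well) was pre-incubated 1 h at 4°C with free RNA oligos (0 nM to 30 μM), then 30 min at 4°C with the same 5′-amino-C6 oligos coupled to NHS-Sepharose beads. Bound proteins were quantified by label-free LC-MS/MS in three biological replicates and two independent experiments, and normalised to the water control. EC50 came from a four-parameter log-logistic fit; Kd is EC50 times a protein-dependent depletion factor.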

HNRNPK = HNRNPK (UniProt P61978)
Procedure, shortened: as §1

MRPL13 = MRPL13 (UniProt Q9BYD1)
Procedure, shortened: as §1

MRPS26 = MRPS26 (UniProt Q9BYN8)
Procedure, shortened: as §1

CDKN2AIP = molecular target: T1, CDKN2AIP (UniProt Q9NXV6)
T1 sequence: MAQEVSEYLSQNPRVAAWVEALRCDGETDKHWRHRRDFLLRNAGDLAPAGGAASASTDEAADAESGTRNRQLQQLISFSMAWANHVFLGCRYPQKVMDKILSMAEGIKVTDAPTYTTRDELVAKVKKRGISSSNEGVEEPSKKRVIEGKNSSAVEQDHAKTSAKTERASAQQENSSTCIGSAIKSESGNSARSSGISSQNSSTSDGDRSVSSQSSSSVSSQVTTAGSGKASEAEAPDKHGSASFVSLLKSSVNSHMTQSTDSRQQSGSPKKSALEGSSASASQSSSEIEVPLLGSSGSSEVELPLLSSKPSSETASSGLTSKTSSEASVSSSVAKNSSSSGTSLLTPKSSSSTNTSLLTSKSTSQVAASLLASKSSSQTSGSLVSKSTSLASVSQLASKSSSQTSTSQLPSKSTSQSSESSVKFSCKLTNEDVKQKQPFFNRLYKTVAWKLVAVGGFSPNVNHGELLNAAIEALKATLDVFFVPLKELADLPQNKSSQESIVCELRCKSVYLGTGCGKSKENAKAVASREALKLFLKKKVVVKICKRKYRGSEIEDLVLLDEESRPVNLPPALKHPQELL
Procedure, shortened: as §1

MEX3D = molecular target: T2, MEX3D (UniProt Q86XN8)
T2 sequence: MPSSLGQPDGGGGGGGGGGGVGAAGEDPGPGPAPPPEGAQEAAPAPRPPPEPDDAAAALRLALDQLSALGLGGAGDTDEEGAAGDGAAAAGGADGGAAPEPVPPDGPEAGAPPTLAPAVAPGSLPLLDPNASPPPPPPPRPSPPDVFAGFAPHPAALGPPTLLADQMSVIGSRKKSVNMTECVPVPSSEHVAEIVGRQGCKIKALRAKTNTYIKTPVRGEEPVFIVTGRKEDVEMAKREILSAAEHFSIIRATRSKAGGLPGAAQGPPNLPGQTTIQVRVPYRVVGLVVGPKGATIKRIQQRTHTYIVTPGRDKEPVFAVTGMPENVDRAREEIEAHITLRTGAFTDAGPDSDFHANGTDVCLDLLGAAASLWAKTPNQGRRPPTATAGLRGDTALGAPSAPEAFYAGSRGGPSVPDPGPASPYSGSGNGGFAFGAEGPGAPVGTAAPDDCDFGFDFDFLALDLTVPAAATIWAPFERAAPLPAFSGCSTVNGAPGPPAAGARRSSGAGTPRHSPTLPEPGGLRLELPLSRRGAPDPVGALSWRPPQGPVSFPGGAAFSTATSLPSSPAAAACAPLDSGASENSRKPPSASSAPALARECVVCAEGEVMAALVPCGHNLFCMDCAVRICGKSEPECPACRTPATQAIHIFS
Procedure, shortened: as §1

TRIM56 = molecular target: T3, TRIM56 (UniProt Q9BRZ2)
T3 sequence: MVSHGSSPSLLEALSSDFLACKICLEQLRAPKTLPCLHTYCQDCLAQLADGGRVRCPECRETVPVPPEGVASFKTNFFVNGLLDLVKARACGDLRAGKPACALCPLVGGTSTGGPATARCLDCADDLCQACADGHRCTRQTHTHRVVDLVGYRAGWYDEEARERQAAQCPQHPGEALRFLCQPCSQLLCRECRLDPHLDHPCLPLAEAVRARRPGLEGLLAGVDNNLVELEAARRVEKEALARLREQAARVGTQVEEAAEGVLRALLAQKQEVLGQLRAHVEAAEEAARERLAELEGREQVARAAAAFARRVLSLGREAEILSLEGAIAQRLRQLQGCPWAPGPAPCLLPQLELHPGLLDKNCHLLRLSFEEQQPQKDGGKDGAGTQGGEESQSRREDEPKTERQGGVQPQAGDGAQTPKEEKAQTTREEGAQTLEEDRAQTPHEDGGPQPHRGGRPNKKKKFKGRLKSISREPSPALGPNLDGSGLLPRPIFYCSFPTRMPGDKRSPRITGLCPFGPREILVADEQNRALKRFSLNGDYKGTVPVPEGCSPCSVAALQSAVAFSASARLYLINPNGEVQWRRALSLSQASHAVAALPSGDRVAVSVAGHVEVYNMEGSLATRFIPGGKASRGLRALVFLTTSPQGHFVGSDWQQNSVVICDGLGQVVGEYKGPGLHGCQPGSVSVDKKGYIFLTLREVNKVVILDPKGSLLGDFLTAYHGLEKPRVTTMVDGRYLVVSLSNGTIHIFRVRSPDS
Procedure, shortened: as §1

Sequence	EC50 (RPS5)	EC50 (HNRNPK)	EC50 (MRPL13)	EC50 (MRPS26)	EC50 (CDKN2AIP)	EC50 (MEX3D)	EC50 (TRIM56)
CUGUCCU	303 nM	3040 nM	194 nM	–	–	–	–
UAUUUAU	–	–	–	35.1 nM	419 nM	714 nM	3450 nM
